System: IgE antibodies from soybean-allergic patients
Assay: Immunoblotting of two-dimensional electrophoresis pattern of soybean proteins with patient serum
Assay type: binding, human
Conditions: spot in 2D electrophoresis gel of soybean proteins; patient serum compared with healthy subject serum
Description: Transfer to membrane was done using the following transfer system and transfer buffer. • Transfer system: XCell SureLock Mini-Cell and XCell II Blot Module (produced by Life Technologies) • Transfer buffer: NuPAGE Transfer Buffer (X20) (produced by Life Technologies), used in a form diluted 20-fold with milliQ water.
To be specific, proteins in the two-dimensional electrophoresis gels were transferred to a membrane (PVDF membrane) according to the following procedure. • (1) The PVDF membrane was immersed in 100% methanol followed by milliQ water, and then moved into the transfer buffer to hydrophilize the PVDF membrane. • (2) After sponge, filter paper, the gels treated by second-dimensional SDS-PAGE, the hydrophilized PVDF membrane, filter paper, and sponge were put in place in this order, the transfer system was energized at a constant voltage of 30 V for one hour.
Immunoblotting of the membrane was carried out using, as a primary antibody, a serum sample from a patient with a soybean allergy or a serum sample from a healthy subject.
Immunoblotting of the membrane was carried out according to the following procedure. • (1) The transferred membrane was shaken in a 5% skim milk/PBST solution (a PBS buffer containing 0.3% Tween 20 nonionic surfactant) at room temperature for one hour. • (2) The membrane was left to stand in a solution of 3% primary antibody serum in 5% skim milk/PBST at room temperature for one hour. • (3) The membrane was washed with a PBST solution (5 min.×3 times). • (4) The membrane was left to stand in a 1:2500 dilution of the secondary antibody, anti-human IgE-HRP (horseradish peroxidase), with a 3% skim milk/PBST solution at room temperature for one hour. • (5) The membrane was washed with a PBST solution (5 min.×3 times). • (6) The membrane was left to stand in Pierce Western Blotting Substrate Plus (produced by Thermo Fisher Scientific) for 5 minutes.
The membrane obtained through the foregoing series of treatments was subjected to fluorescent image scanning on Typhoon 9400 (produced by GE).
The immunoblots obtained with the serum from the soybean-allergic patient were compared with those obtained with the control serum from the healthy subject.

Molecule	specific binding to IgE antibodies from soybean-allergic patients
succinyl-CoA ligase [ADP-forming] subunit beta, mitochondrial (protein, Glycine max) MVRGLLNKLVSRSLSVAGKWQHNQLRRLNIHEYQGAELMSKHGVNVPRGVAVSSVEEARKVIKDLFPNENELVVKSQILAGGRGLGTFKSGLKGGVHIVKTDQVEDIAGKMLGQILVTKQTGPQGKIVSKVYLCEKLSLVNEMYFAITLDRTSAGPIIIACSKGGTSIEDLAEKFPDMIIKVPVDVFEGITDEGAAKVVDGLALKVADRNKSIEQVKNLYKLFVDCDCTLLEINPIAETADNQLVAADAKLNFDDNAAYRQKEIFSLRDTTQEDPREVTAAKADLNYIGLDGEIGCMVNGAGLAMATMDIIKLHGGTPANFLDVGGNASENQVVEAFKILTADDKVKAILVNIFGGIMKCDVIASGIVNAAKEVALKVPVVVRLEGTNVDQGKRILKESGMALITAEDLDDAAQKAVKAAYK	specific binding
protein disulfide isomerase-like protein precursor (protein, Glycine max, spot also identified as protein disulfide-isomerase) MPKFFHSIFRGTMAGRVSTCFFFVFALSLLLPFQISAEESSEKEFVLTLDHSNFHDTVSKHDFIVVEFYAPWCGHCKKLAPEYEKAASILSSHDPPVVLAKIDANEEKNKDLASQYDVRGYPTIKILRNGGKNVQEYKGPREADGIVDYLKKQSGPASTEIKSADEATAFIGENKVAIVGVFPKFSGEEFDNFSALAEKLRSDYDFGHTLNAKHLPRGESSVSGPVVRLFKPFDELFVDFQDFNVEALEKFVEESSTPVVTVFNNDPSNHPFVAKFFNSPNAKAMLFINFTAEGAESFKSKYREAAEQHKQQGVSFLVGDVESSQGAFQYFGLKEEQVPLIIIQHNDGKKFFKPNLEADHIPTWLKAYKDGNVAPFVKSEPIPEANDEPVKVVVGNSLEDIVFKSGKNVLLEFYAPWCGHCKQLAPILDEVAISYQSDADVVIAKLDATANDIPSETFDVQGYPTVYFRSASGKLSQYEGGRTKEDIIEFIEKNRDKPAQQEQGQDKPAQQEQGQDEQEKGKDEL	specific binding
guanosine nucleotide diphosphate dissociation inhibitor 2 (protein, Glycine max) MDEEYDVIVLGTGLKECILSGLLSVDGLKVLHMDRNDYYGGESTSLNLIQLWKRFRGDDKPPPHLGASRDYNIDMNPKFIMANGNLVRVLIHTDVTKYLSFKAVDGSFVFNKGKVHKVPANDMEALKSPLMGLFEKRRARKFFIYVQNYNESDPKTHEGMDLTRVTTKELIAKYGLDDNTIDFIGHALALHSDDRYLAEPALDTVKRMKLYAESLARFQGGSPYIYPLYGLGELPQAFARLSAVYGGTYMLNKPECKVEFDEEGKVVGVTSEGETAKCKKVVCDPSYLPGKVRKVGRVARAIAIMSHPIPSTDDSHSVQIILPQKQLGRKSDMYLFCCSYTHNVAPKGKFIAFVSTEAETDQPAIELKPGIDLLGPVDEIFFDIYDRYEPVNEPTLDNCFVSTSYDATTHFESTVDDVLNMYTLITGKVIDLSVDLSAASAAEE	specific binding
hypothetical protein GLYMA_10G028300 (protein) ETEVEEEDPELVTCKHQCQQPQQYTEGDKRVCLQRCDRYHRMKQEREKQIQEETREKKEEESREREEEQQEQHEEQDENPYIFEEDKDFETRVETEGGRIRVLKKFTEKSKLLQGIENFRLAILEARAHTFVSPRHFDSEVVFFNIKGRAVLGLVSESETEKITLEPGDMIHIPAGTPLYIVNRDENDKLFLAMLHIPVSVSTPGKFEEFFGPGGRDPESVLSAFSWNVLQAALQTPKGKLEKLFDQQNEGSIFAISREQVRALAPTKKSSWWPFGGESKPQFNIFSKRPTISNGYGRLTEVGPDDDEKSWLQRLNLMLTFTNITQRSMSTIHYNSHATKIALVIDGRGHLQISCPHMSSRSSHSKHDKSSPSYHRISSDLKPGMVFVVPPGHPFVTIASNKENLLMICFEVNARDNKKFTFAGKDNIVSSLDNVAKELAFNYPSEMVNGVFDRKESFFFPFELPREERGRRADA	specific binding

The remaining lines, values ahead:

specific binding to IgE antibodies from soybean-allergic patients	Molecule
specific binding	sucrose binding protein homolog S-64 (protein) ETEVEEDPELVTCKHQCQQQRQYTESDKRTCLQQCDSMKQEREKQVEEETREKEEEHQEQHEEEQDQNPYVFEEDKDFSTRVETEGGSIRVLKKFTEKSKLLQGNENFRLAILEARAHTFVSPRHFDSEVVLFNIKGRAVLGLVRESETEKITLEPGDMIHIPAGTPLYIVNRDENEKLLLAMLHIPVSTPGKFEEFFGPGGRDPESVLSAFSWNVLQAALQTPKGKLERLFNQQNEGSIFKISRERVRALAPTKKSSWWPFGGESKAQFNIFSKRPTFSNGYGRLTEVGPDDEKSWLQRLNLMLTFTNITQRSMSTIHYNSHATKIALVMDGRGHLQISCPHMSSRSDSKHDKSSPSYHRISADLKPGMVFVVPPGHPFVTIASNKENLLIICFEVNVRDNKKFTFAGKDNIVSSLDNVAKELAFNYPSEMVNGVFERKESLFFPFELPSEERGRRAVA
specific binding	endoplasmin homolog isoform X2 (protein, Glycine max) MRKWTVASALLLLSLLFLFADQGRKFQANAEGDSDELVDPPKVEDKIGAVPHGLSTDSDVVKREAESISKRSLRSNAEKFEFQAEVSRLMDIIINSLYSNKDIFLRELISNASDALDKIRFLSLTDKEVLGEGDNTKLDIQIKLDKEKKILSIRDRGIGMTKEDLIKNLGTIAKSGTSAFVEKMQTSGDLNLIGQFGVGFYSVYLVADYVEVISKNNDDKQYVWESKADGAFAISEDTWNEPLGRGTEIRLHLKEEAGEYLEESKLKELVKRYSEFINFPIYIWASKEVDVEVPADEDDSSDEEDSSESSSKEESEDEDADKSEDEEKKPKTKTVKETTYEWELLNDVKAIWLRNPKEVTEEEYTKFYHSLAKDFSDEKPLAWSHFTAEGDVEFKAVLFVPPKAPQDLYESYYNANKSNLKLYVRRVFISDEFNELLPKYLNFLLGLVDSDTLPLNVSREMLQQHSSLKTIKKKLIRKALDMIRRIADEDPDESTDKEKKDASSDNDEKKGQYSKFWNEFGKSIKLGIIEDATNRNRLAKLLRFESTKSEGKLTSLDQYISRMKTGQKDIFYITGTSKEQLENSPFLERLKKKNFEVIFFTDPVDEYLMQYLMDYEDKKFQNVSKEGLKLGKDSKDKELKESFKDLTKWWKTALSKDNVDDVKISNRLDNTPCVVVTSKFGWSANMERIMQSQTLSDASKQAYMRGKRVLEINPRHPIIKELRERVVKNPEDEGVKHTAQLMYQTALFESGFLLDDPKDFASRIYDSVKTSLDISPEATVEEEDDTEVEAESDAKEDSKPETDAVNDDNDVKDEL
specific binding	polyadenylate-binding protein 8 isoform X3 (protein) MAQVLENPTIDAAASGANPSLTTISLYVGDLHHDVNDPQLYDLFNQVAQVVSVRICRDVATQQSLGYGYVNFSNAHDAAKAIDVLNFTPLNGKIIRIMYSIRDPSARKSGAANVFIKNLDKAIDHKALYDTFSAFGNILSCKVATDASGQSKGHGFVQFESEESAQNAIDKLNGMLINDKQVFVGPFLRKQDRESALSGTKFNNVFVKNLLDSMTEADLERIFGEYGAITSAVVMRDVDGKSKGFGFVNFANVDDAAKAVEALNGKNFDGKEWYVGKAQKKSERELELKGQHEQITKETVDKYHGTNLYIKNLDDSVGDEELMELFSEFGTITSCKVMRDPNGISRGSGFVSFSIAEGATRALGEMNGKMVAGKPLYVALAQRKEDRRARLQAQFSQSRPAAITPNVSPRMPLYPLGAPAIGQQFLYGQAAPATIPQHFVPGMRPGGAPNFYVPLVQQGQQGQRPGGHRGSGPMQQLQQPLPLMHQQMLPRGHVYRYPSGSNMQNIQLAGVPGGMVTYGIGQQMPTQALASALANATPEQQRTMLGEALYPLVDKLEHEAAAKVTGMLLEMDQPEVLHLIESPDALKAKVVEAMDVLKKVTQQQSNSPADQLASLSLNDNVES
specific binding	V-type proton ATPase subunit B 2 (protein, Glycine max) MGVAQNIPDAEEGTLEIGMEYRTVSGVAGPLVILDKVKGPKFQEIVNIRLGDGTTRRGQVLEVDGEKAVVQVFEGTSGIDNKFTTVQFTGEVLKTPVSLDMLGRIFNGSGKPIDNGPPILPEAYLDISGSSINPSERTYPEEMIQTGISTIDVMNSIARGQKIPLFSAAGLPHNEIAAQICRQAGLVKRLEKSDNLLEGGGEEDNFAIVFAAMGVNMETAQFFKRDFEENGSMERVTLFLNLANDPTIERIITPRIALTTAEYLAYECGKHVLVILTDMSSYADALREVSAAREEVPGRRGYPGYMYTDLATIYERAGRIEGRKGSITQIPILTMPNDDITHPTPDLTGYITEGQIYIDRQLYNRQIYPPINVLPSLSRLMKSAIGEGMTRKDHSDVSNQLYANYAIGKDVQAMKAVVGEEALSSEDLLYLEFLEKFERKFVAQGAYDTRNIFQSLDLAWTLLRIFPRELLHRIPAKTLDQFYSRDASN

From US20250262297A1, “ALLERGY ANTIGEN AND EPITOPE THEREOF” (HOYU CO., LTD., priority 2017, published 2025)
